How the values were obtained:
[1] = target: Ad5 hexon capsid protein with DogTag inserted into the HVR5 loop, on Ad5 virions (Ad5-HVR5-DogTag) (human adenovirus serotype 5 (Ad5)) (UniProt P04133)
[2] = target: Ad5 hexon capsid protein with DogTag inserted into the HVR5 loop, on Ad5 virions (Ad5-HVR5-DogTag) (human adenovirus serotype 5 (Ad5)) (UniProt P04133); remark: listed apart in the source

Substance | coupling efficiency (% hexon coupled) [1] [%] | coupling efficiency (% total hexon protein coupled) [2] [%]
DogCatcher fused to the receptor binding domain of haemagglutinin (HA) from Influenza A (H1 A/Califo | 44 | 
DogCatcher fused to SARS CoV-2 Spike receptor binding domain (Wuhan strain, residues 319-532) (from UniProt P0DTC2 319-532) |  | 64

Source: US20240240203A1
